In patent US7807620 (TRUSTEES OF COLUMBIA UNIVERSITY IN THE CITY OF NEW YORK, dated 2010):

Target: T1, recombinant native hFSH receptor (human, UniProt P23945 18-695)
T1 construct: whole, on cells
T1 sequence (looked up): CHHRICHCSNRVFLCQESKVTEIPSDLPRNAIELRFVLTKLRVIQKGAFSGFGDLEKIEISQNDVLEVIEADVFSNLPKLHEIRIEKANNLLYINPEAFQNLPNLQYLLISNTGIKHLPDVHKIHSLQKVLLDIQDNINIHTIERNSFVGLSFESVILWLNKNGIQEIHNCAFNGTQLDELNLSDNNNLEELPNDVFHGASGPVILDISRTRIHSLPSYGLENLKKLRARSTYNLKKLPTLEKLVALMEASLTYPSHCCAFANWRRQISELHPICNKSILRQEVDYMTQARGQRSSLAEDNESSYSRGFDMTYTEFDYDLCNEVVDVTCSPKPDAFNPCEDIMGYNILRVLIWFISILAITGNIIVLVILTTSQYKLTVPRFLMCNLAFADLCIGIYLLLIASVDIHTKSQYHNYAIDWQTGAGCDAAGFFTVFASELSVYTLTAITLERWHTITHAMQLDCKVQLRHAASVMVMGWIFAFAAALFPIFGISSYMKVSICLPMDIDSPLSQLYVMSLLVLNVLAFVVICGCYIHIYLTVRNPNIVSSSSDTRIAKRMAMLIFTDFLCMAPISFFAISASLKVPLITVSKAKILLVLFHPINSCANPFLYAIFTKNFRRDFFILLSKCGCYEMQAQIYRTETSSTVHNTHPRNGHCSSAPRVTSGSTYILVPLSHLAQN
Assay: conclusion drawn from the cAMP bioassay on Y-1 cells expressing the FSH receptor; no direct binding assay described
Experimental: Bioactivity of the hFSH analogues was evaluated using Y-1 cells transfected with the FSH receptor. Y-1 cell cultures were mixed with the fusion protein and native pituitary hFSH (control) at varying concentrations and media was assayed for cAMP activity as described in Bouloux et al, 2001.
Figure 8: FIG. 8: In vitro bioassay of hormone activity. cAMP concentration (fmol/ml) was quantitated in Y1 cells expressing the FSH receptor after treatment with the indicated amount of either pituitary FSH (PFSH) or the FSH analogue, β-hFSH-CTP-α-hFSH (rFSH-CTP).
The bioactivity of the β-hFSH-CTP-α analogue was first assessed by an assay of hFSH receptor activity. In this assay, a recombinant native hFSH receptor is expressed in a suitable host cell and cAMP induction is measured following incubation with hormone (Lindau-Shepard et al, 2001).

- binding result: binds
B1: β-hFSH-CTP-α-hFSH (ligand)
chain: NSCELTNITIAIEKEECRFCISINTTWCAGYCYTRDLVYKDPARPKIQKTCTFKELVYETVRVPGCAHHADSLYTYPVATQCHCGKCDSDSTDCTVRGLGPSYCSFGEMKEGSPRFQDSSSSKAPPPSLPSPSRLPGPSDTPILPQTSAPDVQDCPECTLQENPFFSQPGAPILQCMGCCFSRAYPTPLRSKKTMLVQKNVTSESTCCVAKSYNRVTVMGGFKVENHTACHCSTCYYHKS
notes: Secreted from CHO-K1 cells and purified on an A201 column; also called β-hFSH-CTP-α analogue; β-hFSH-CTP-α fusion protein
